The text below walks through data of patent publication US20200095340A1.

B1: anti-DLL3 trispecific protein, DLL3 binder 1G04 (protein, part only; not given: anti-CD3 fragment and anti-albumin sdAb, part only)
chain, part: EVQLVESGGGLVQPGGSLTLSCVASGSTSSTNAMGWYRRAPGKQRELVAGISSDGSKVLADSVKGRFTISRDNAKNSVYLQMNSLRAEDTAVYYCYYFRTVNLSSMRYWGQGTLVTVSSGGGGSGGGSGGGGSGGGSHHHHHH
B2: anti-DLL3 trispecific protein, DLL3 binder 2B011 (protein, part only; not given: CD3 binder and albumin binder, part only)
chain, part: EVQLVESGGGLVQPGGSLTLSCVASGNTSSINAMGWYRRAPGKQRELVAGISSDGSRVYADSVKGRFTISRDNAKNSVYLQMNSLRAEDTAVYYCYYFRTVSGSSMRSWGQGTLVTVSSGGGGSGGGSGGGGSGGGSHHHHHH
B3: anti-DLL3 trispecific protein, DLL3 binder 2C01 (protein, part only; not given: anti-CD3 fragment and anti-albumin sdAb, part only)
chain, part: EVQLVESGGGLVQPGGSLTLSCVASGSTASINAMGWYRRAPGKQRELVAGISSDGSKVYADSVKGRFTISRDNAKNSVYLQMNSLRAEDTAVYYCYYFRYVSGSSMRYWGQGTLVTVSSGGGGSGGGSGGGGSGGGSHHHHHH
B4: anti-DLL3 trispecific protein, DLL3 binder 3E04 (protein, part only; not given: CD3 fragment and albumin sdAb, part only)
chain, part: EVQLVESGGGLVQPGGSLTLSCAASGSSVHFLSMAWYRQAPGKKRELVAGISRDGSTDYIDSVKGRFTISRDNAKNSVYLQMNSLRAEDTAVYYCYAYRWTTRYRYWGQGTLVTVSSGGGGSGGGSGGGGSGGGSHHHHHH
B5: anti-DLL3 trispecific protein, DLL3 binder 3A010 (protein, part only; not given: anti-CD3 fragment and anti-albumin sdAb, part only)
chain, part: EVQLVESGGGLVQPGGSLTLSCAASGSRVSFLSMAWYRQAPGKKRELVAGISADGSTLYIDSVKGRFTISRDNAKNSVYLQMNSLRAEDTAVYYCYAYRWTTRRTYWGQGTLVTVSSGGGGSGGGSGGGGSGGGSHHHHHH
B6: anti-DLL3 trispecific protein, DLL3 binder 4B04 (protein, part only; not given: anti-CD3 fragment and anti-albumin sdAb, part only)
chain, part: EVQLVESGGGLVQPGGSLTLSCAASGSSVLFLSMAWYRQAPGKKRELVAGVSSDGSTDYIDSVKGRFTISRDNAKNSVYLQMNSLRAEDTAVYYCYAYRWRTRYTYWGQGTLVTVSSGGGGSGGGSGGGGSGGGSHHHHHH
B7: anti-DLL3 trispecific protein, DLL3 binder 3F09 (protein, part only; not given: anti-CD3 fragment and anti-albumin sdAb, part only)
chain, part: EVQLVESGGGLVQPGGSLTLSCAASGSSVRFLSMAWYRQAPGKKRELVAGISRDGSTDYIDSVKGRFTISRDNAKNSVYLQMNSLRAEDTAVYYCYAYRWGTRYTYWGQGTLVTVSSGGGGSGGGSGGGGSGGGSHHHHHH
B8: anti-DLL3 trispecific protein, DLL3 binder 3E02 (protein, part only; not given: anti-CD3 fragment and anti-albumin domain, part only)
chain, part: EVQLVESGGGLVQPGGSLTLSCAASGSGVRFLSMAWYRQAPGKKRELVAGISPDGSTDYIDSVKGRFTISRDNAKNSVYLQMNSLRAEDTAVYYCYAYRWTRRYTYWGQGTLVTVSSGGGGSGGGSGGGGSGGGSHHHHHH
B9: anti-DLL3 trispecific protein, DLL3 binder 3A03 (protein, part only; not given: CD3 fragment and albumin sdAb, part only)
chain, part: EVQLVESGGGLVQPGGSLTLSCAASGSRVSFLSMAWYRQAPGKKRELVAGISRDGSTDYIDSVKGRFTISRDNAKNSVYLQMNSLRAEDTAVYYCYAYRWTTRRTYWGQGTLVTVSSGGGGSGGGSGGGGSGGGSHHHHHH
B10: anti-DLL3 trispecific protein, DLL3 binder 3B010 (protein, part only; not given: anti-CD3 and anti-albumin domains, part only)
chain, part: EVQLVESGGGLVQPGGSLTLSCAASGSSVSFLSMAWYRQAPGKKRELVAGISRDGSTDYIDSVKGRFTISRDNAKNSVYLQMNSLRAEDTAVYYCYAYRWVTRYTYWGQGTLVTVSSGGGGSGGGSGGGGSGGGSHHHHHH
B11: anti-DLL3 trispecific protein, DLL3 binder 3D02 (protein, part only; not given: anti-CD3 fragment and anti-albumin sdAb, part only)
chain, part: EVQLVESGGGLVQPGGSLTLSCAASGSSVRFLSMAWYRQAPGKKRELVAGISRDGSTDYIDSVKGRFTISRDNAKNSVYLQMNSLRAEDTAVYYCYAYRWITRYTYWGQGTLVTVSSGGGGSGGGSGGGGSGGGSHHHHHH
B12: anti-DLL3 trispecific protein, DLL3 binder 3G06 (protein, part only; not given: CD3 binder and albumin binder, part only)
chain, part: EVQLVESGGGLVQPGGSLTLSCAASGSSVKFLSMAWYRQAPGKKRELVAGISADGSTLYIDSVKGRFTISRDNAKNSVYLQMNSLRAEDTAVYYCYAYRWTTRRTYWGQGTLVTVSSGGGGSGGGSGGGGSGGGSHHHHHH

This experiment deals with biotinylated human DLL3 protein expressed as a human IgG1 fusion protein (human) (UniProt Q9NYJ7). The experiment can be described thus: Octet, biotinylated human DLL3-IgG1 fusion on streptavidin tips, single 50 nM, conditioned medium (relative KD).
Chain of biotinylated human DLL3 protein expressed as a human IgG1 fusion protein (human) (Q9NYJ7 27-492): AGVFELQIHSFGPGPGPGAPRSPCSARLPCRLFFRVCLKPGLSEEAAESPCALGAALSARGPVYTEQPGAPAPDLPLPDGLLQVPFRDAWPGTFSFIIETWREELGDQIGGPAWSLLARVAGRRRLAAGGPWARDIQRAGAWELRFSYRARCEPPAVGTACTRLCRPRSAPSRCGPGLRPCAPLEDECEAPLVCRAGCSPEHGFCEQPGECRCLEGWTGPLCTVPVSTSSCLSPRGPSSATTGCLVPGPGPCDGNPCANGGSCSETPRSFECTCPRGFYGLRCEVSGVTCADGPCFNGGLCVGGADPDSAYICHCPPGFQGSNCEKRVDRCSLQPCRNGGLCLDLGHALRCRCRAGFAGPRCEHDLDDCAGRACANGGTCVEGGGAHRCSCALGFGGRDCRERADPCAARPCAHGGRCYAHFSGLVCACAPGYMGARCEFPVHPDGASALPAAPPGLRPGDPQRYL
Broadly, the Kd is the free concentration of one partner at which half of the binding sites on the other are occupied at equilibrium, for simple one-to-one binding. Low readings indicate a tighter complex, high ones a looser complex. In turn, B1 had a Kd of 11 nM.
For B2 the value was 11 nM; for B3, 12 nM; for B4, 11 nM.
Molecule B5 had a Kd of 12 nM.
Consider B6, for which the Kd stood at 12 nM.
Molecule B7 had a Kd of 12 nM.
For the molecule B8, the Kd was found to be 12 nM.
The molecule B9 yielded a Kd of 12 nM.
Take B10: the Kd was found to be 12 nM.
For B11, the Kd was 12 nM.
For B12, the Kd was 12 nM.
